Experimental data as given in the Human Domainome abundance scans (Beltran et al. 2025).
± gives the uncertainty stated by the source.

B1: CD2-associated protein, residues 1 to 59; numbered along this chain, Q9Y5K6 (parent)
chain: MVDYIVEYDYDAVHDDELTIRVGEIIRNVKKLQEEGWLEGELNGRRGMFPDNFVKEIKR

Variants of: B1
Assay: abundance fitness (aPCA) (normalised: wild type 0, dead -1); higher = more abundant; growth selection in yeast, the domain comes from the species named
Details: Homo sapiens

First: MVDWIVEYDYDAVHDDELTIRVGEIIRNVKKLQEEGWLEGELNGRRGMFPDNFVKEIKR [Y4W]
Second: MVDIIVEYDYDAVHDDELTIRVGEIIRNVKKLQEEGWLEGELNGRRGMFPDNFVKEIKR [Y4I]
The abundance fitness of the first is higher: -0.166 ± 0.098 for the first, -0.844 ± 0.28 for the second.

MVDDIVEYDYDAVHDDELTIRVGEIIRNVKKLQEEGWLEGELNGRRGMFPDNFVKEIKR [Y4D] and MVDPIVEYDYDAVHDDELTIRVGEIIRNVKKLQEEGWLEGELNGRRGMFPDNFVKEIKR [Y4P] are within error of each other in abundance fitness: -0.826 ± 0.26 for the first, -0.863 ± 0.35 for the second.

Going from MVDLIVEYDYDAVHDDELTIRVGEIIRNVKKLQEEGWLEGELNGRRGMFPDNFVKEIKR [Y4L] to MVDMIVEYDYDAVHDDELTIRVGEIIRNVKKLQEEGWLEGELNGRRGMFPDNFVKEIKR [Y4M], the abundance fitness rises from -0.476 ± 0.11 to -0.086 ± 0.13.

MVDHIVEYDYDAVHDDELTIRVGEIIRNVKKLQEEGWLEGELNGRRGMFPDNFVKEIKR [Y4H] and MVDQIVEYDYDAVHDDELTIRVGEIIRNVKKLQEEGWLEGELNGRRGMFPDNFVKEIKR [Y4Q] are within error of each other in abundance fitness: -0.554 ± 0.21 for the first, -0.687 ± 0.39 for the second.

Compared with MVDKIVEYDYDAVHDDELTIRVGEIIRNVKKLQEEGWLEGELNGRRGMFPDNFVKEIKR [Y4K], MVDVIVEYDYDAVHDDELTIRVGEIIRNVKKLQEEGWLEGELNGRRGMFPDNFVKEIKR [Y4V] is higher in abundance fitness: -0.486 ± 0.15 for the first, -0.042 ± 0.13 for the second.

MVDCIVEYDYDAVHDDELTIRVGEIIRNVKKLQEEGWLEGELNGRRGMFPDNFVKEIKR [Y4C] and MVDAIVEYDYDAVHDDELTIRVGEIIRNVKKLQEEGWLEGELNGRRGMFPDNFVKEIKR [Y4A] are within error of each other in abundance fitness: -0.173 ± 0.14 for the first, -0.254 ± 0.15 for the second.

Going from MVDTIVEYDYDAVHDDELTIRVGEIIRNVKKLQEEGWLEGELNGRRGMFPDNFVKEIKR [Y4T] to MVDRIVEYDYDAVHDDELTIRVGEIIRNVKKLQEEGWLEGELNGRRGMFPDNFVKEIKR [Y4R], the abundance fitness falls from -0.136 ± 0.12 to -0.404 ± 0.091.

MVDYEVEYDYDAVHDDELTIRVGEIIRNVKKLQEEGWLEGELNGRRGMFPDNFVKEIKR [I5E] and MVDYLVEYDYDAVHDDELTIRVGEIIRNVKKLQEEGWLEGELNGRRGMFPDNFVKEIKR [I5L] are within error of each other in abundance fitness: -0.267 ± 0.18 for the first, -0.105 ± 0.1 for the second.

MVDYVVEYDYDAVHDDELTIRVGEIIRNVKKLQEEGWLEGELNGRRGMFPDNFVKEIKR [I5V] and MVDYQVEYDYDAVHDDELTIRVGEIIRNVKKLQEEGWLEGELNGRRGMFPDNFVKEIKR [I5Q] are within error of each other in abundance fitness: -0.097 ± 0.075 for the first, 0.037 ± 0.18 for the second.

MVDYNVEYDYDAVHDDELTIRVGEIIRNVKKLQEEGWLEGELNGRRGMFPDNFVKEIKR [I5N] and MVDYAVEYDYDAVHDDELTIRVGEIIRNVKKLQEEGWLEGELNGRRGMFPDNFVKEIKR [I5A] are within error of each other in abundance fitness: -0.681 ± 0.36 for the first, -0.544 ± 0.17 for the second.

MVDYGVEYDYDAVHDDELTIRVGEIIRNVKKLQEEGWLEGELNGRRGMFPDNFVKEIKR [I5G] and MVDYCVEYDYDAVHDDELTIRVGEIIRNVKKLQEEGWLEGELNGRRGMFPDNFVKEIKR [I5C] are within error of each other in abundance fitness: -0.704 ± 0.16 for the first, -0.343 ± 0.21 for the second.

Compared with MVDYPVEYDYDAVHDDELTIRVGEIIRNVKKLQEEGWLEGELNGRRGMFPDNFVKEIKR [I5P], MVDYTVEYDYDAVHDDELTIRVGEIIRNVKKLQEEGWLEGELNGRRGMFPDNFVKEIKR [I5T] is higher in abundance fitness: -0.979 ± 0.41 for the first, -0.335 ± 0.14 for the second.

Compared with MVDYMVEYDYDAVHDDELTIRVGEIIRNVKKLQEEGWLEGELNGRRGMFPDNFVKEIKR [I5M], MVDYSVEYDYDAVHDDELTIRVGEIIRNVKKLQEEGWLEGELNGRRGMFPDNFVKEIKR [I5S] is lower in abundance fitness: 0 ± 0.14 for the first, -0.317 ± 0.1 for the second.

MVDYRVEYDYDAVHDDELTIRVGEIIRNVKKLQEEGWLEGELNGRRGMFPDNFVKEIKR [I5R] and MVDYDVEYDYDAVHDDELTIRVGEIIRNVKKLQEEGWLEGELNGRRGMFPDNFVKEIKR [I5D] are within error of each other in abundance fitness: -0.128 ± 0.12 for the first, -0.556 ± 0.32 for the second.

GVDYIVEYDYDAVHDDELTIRVGEIIRNVKKLQEEGWLEGELNGRRGMFPDNFVKEIKR [M1G] and TVDYIVEYDYDAVHDDELTIRVGEIIRNVKKLQEEGWLEGELNGRRGMFPDNFVKEIKR [M1T] are within error of each other in abundance fitness: -0.14 ± 0.14 for the first, -0.228 ± 0.11 for the second.

SVDYIVEYDYDAVHDDELTIRVGEIIRNVKKLQEEGWLEGELNGRRGMFPDNFVKEIKR [M1S] and IVDYIVEYDYDAVHDDELTIRVGEIIRNVKKLQEEGWLEGELNGRRGMFPDNFVKEIKR [M1I] are within error of each other in abundance fitness: 0.072 ± 0.14 for the first, 0.078 ± 0.17 for the second.

RVDYIVEYDYDAVHDDELTIRVGEIIRNVKKLQEEGWLEGELNGRRGMFPDNFVKEIKR [M1R] and EVDYIVEYDYDAVHDDELTIRVGEIIRNVKKLQEEGWLEGELNGRRGMFPDNFVKEIKR [M1E] are within error of each other in abundance fitness: -0.083 ± 0.12 for the first, -0.276 ± 0.23 for the second.

Going from HVDYIVEYDYDAVHDDELTIRVGEIIRNVKKLQEEGWLEGELNGRRGMFPDNFVKEIKR [M1H] to KVDYIVEYDYDAVHDDELTIRVGEIIRNVKKLQEEGWLEGELNGRRGMFPDNFVKEIKR [M1K], the abundance fitness rises from -0.209 ± 0.21 to 0.142 ± 0.12.

FVDYIVEYDYDAVHDDELTIRVGEIIRNVKKLQEEGWLEGELNGRRGMFPDNFVKEIKR [M1F] and LVDYIVEYDYDAVHDDELTIRVGEIIRNVKKLQEEGWLEGELNGRRGMFPDNFVKEIKR [M1L] are within error of each other in abundance fitness: -0.137 ± 0.38 for the first, 0.015 ± 0.097 for the second.

CVDYIVEYDYDAVHDDELTIRVGEIIRNVKKLQEEGWLEGELNGRRGMFPDNFVKEIKR [M1C] and WVDYIVEYDYDAVHDDELTIRVGEIIRNVKKLQEEGWLEGELNGRRGMFPDNFVKEIKR [M1W] are within error of each other in abundance fitness: -0.28 ± 0.15 for the first, -0.163 ± 0.1 for the second.

VVDYIVEYDYDAVHDDELTIRVGEIIRNVKKLQEEGWLEGELNGRRGMFPDNFVKEIKR [M1V] and NVDYIVEYDYDAVHDDELTIRVGEIIRNVKKLQEEGWLEGELNGRRGMFPDNFVKEIKR [M1N] are within error of each other in abundance fitness: -0.153 ± 0.15 for the first, -0.425 ± 0.34 for the second.

AVDYIVEYDYDAVHDDELTIRVGEIIRNVKKLQEEGWLEGELNGRRGMFPDNFVKEIKR [M1A] and YVDYIVEYDYDAVHDDELTIRVGEIIRNVKKLQEEGWLEGELNGRRGMFPDNFVKEIKR [M1Y] are within error of each other in abundance fitness: 0.05 ± 0.4 for the first, -0.375 ± 0.37 for the second.

With QVDYIVEYDYDAVHDDELTIRVGEIIRNVKKLQEEGWLEGELNGRRGMFPDNFVKEIKR [M1Q] the abundance fitness was -0.301 ± 0.34.
